Test results from US20220073631A1 (QYUNS THERAPEUTICS, published 2022).
Residue numbers refer to the chain shown, from its start.

Columns and labels:
Assay in all cases: SPR, Biacore T200, by the methods of Example 2
[1] = molecular target: T1, hIL-4Rα-Mu242 (human, UniProt P24394 26-232)
T1 construct: Printed positions fit the mature protein; also called V68R/V69F/S70Q; not shown: C-terminal his-tag
T1 chain: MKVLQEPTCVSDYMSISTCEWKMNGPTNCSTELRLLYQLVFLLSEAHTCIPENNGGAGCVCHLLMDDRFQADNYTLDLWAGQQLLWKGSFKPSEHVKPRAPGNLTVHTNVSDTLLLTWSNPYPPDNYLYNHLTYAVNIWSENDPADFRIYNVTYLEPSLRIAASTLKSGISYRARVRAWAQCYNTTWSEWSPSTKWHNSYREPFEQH
Protocol: (§1) The protein A was chemically coupled to a CM5 chip, and an appropriate amount of the antibody was immobilized by a capture method such that the Rmax was less than 50 RU and the flow rate for the capture was 10 μl/min. The antigen was subject to gradient dilution, and the flow rate in the instrument was switched to 30 μl/min. The antigen was flowed through the reference channel and the channel with the immobilized antibody sequentially in an ascending order of concentration, and the running buffer was flowed through as a negative control. After each binding and dissociation was complete, the chip was regenerated with glycine, pH 1.5. Fitting was performed with the build-in software in the instrument according to a 1:1 binding model. The binding rate constant kₐ, the dissociation rate constant kd, and the equilibrium dissociation constant KD values of the antibody were calculated. Dupilumab was obtained by purchasing a commercially available medicine.
(§2) To further narrow down the key amino acids that PD2-31 binds to, multiple mutants of hIL-4Rα were designed in Loop 2 (V40FLLSEA46) and Loop 3 (M65[…]73) (Table 2). The wild-type hIL-4Rα (hIL-4Rα-ECD) and hIL-4Rα mutants were prepared using standard techniques. Briefly, the expression plasmids containing the extracellular domain of wild-type hIL-4Rα and different mutated hIL-4Rα were constructed and transfected into HEK 293F cells. After expression, the extracellular domain of wild-type hIL-4Rα and hIL-4Rα mutants with C-terminus his-tag were purified by Nickel chromatography. Purified proteins of wild-type hIL-4Rα and hIL-4Rα mutants were analyzed for interaction with PD2-31 and Dupilumab. The interaction was studied by Biacore T200, according to the methods in Example 2.

[2] = molecular target: T2, hIL-4Rα-Mu453 (human, UniProt P24394 26-232)
T2 construct: Printed positions fit the mature protein; also called D66A/D67A; not shown: C-terminal his-tag
Protocol: as §1, §2

[3] = molecular target: T3, hIL-4Rα-Mu241 (human, UniProt P24394 26-232)
T3 construct: Printed positions fit the mature protein; also called D67A/V68R/V69F; not shown: C-terminal his-tag
T3 chain: T1 chain with D67A, Q70S
Protocol: as §1, §2

[4] = molecular target: T4, hIL-4Rα-Mu244 (human, UniProt P24394 26-232)
T4 construct: Printed positions fit the mature protein; also called S70Q/A71L/D72R; not shown: C-terminal his-tag
T4 chain: T1 chain with R68V, F69V, A71L, D72R
Protocol: as §1, §2

[5] = molecular target: T5, hIL-4Rα-Mu245 (human, UniProt P24394 26-232)
T5 construct: Printed positions fit the mature protein; also called A71L/D72R/N73A; not shown: C-terminal his-tag
T5 chain: T1 chain with R68V, F69V, Q70S, A71L, D72R, N73A
Protocol: as §1, §2

[6] = molecular target: T6, hIL-4Rα-Mu243 (human, UniProt P24394 26-232)
T6 construct: Printed positions fit the mature protein; also called V69F/S70Q/A71L; not shown: C-terminal his-tag
T6 chain: T1 chain with R68V, A71L
Protocol: as §1, §2

[7] = molecular target: T7, hIL-4Rα-Mu240 (human, UniProt P24394 26-232)
T7 construct: Printed positions fit the mature protein; also called D66A/D67A/V68R; not shown: C-terminal his-tag
T7 chain: T1 chain with D66A, D67A, F69V, Q70S
Protocol: as §1, §2

Kd [1]: 0.979 nM | koff [1]: 0.000138 s⁻¹ | kon [1]: 141000 M⁻¹ s⁻¹ | Kd [2]: 0.663 nM | koff [2]: 0.000118 s⁻¹ | kon [2]: 178000 M⁻¹ s⁻¹ | Kd [3]: 0.474 nM | koff [3]: 6.59e-05 s⁻¹ | kon [3]: 139000 M⁻¹ s⁻¹ | Kd [4]: 1.1 nM | koff [4]: 0.000104 s⁻¹ | kon [4]: 94500 M⁻¹ s⁻¹ | Kd [5]: 1.45 nM | koff [5]: 0.00029 s⁻¹ | kon [5]: 201000 M⁻¹ s⁻¹ | Kd [6]: 0.131 nM | koff [6]: 9.45e-05 s⁻¹ | kon [6]: 723000 M⁻¹ s⁻¹ | Kd [7]: 0.75 nM | koff [7]: 5.23e-05 s⁻¹ | kon [7]: 69800 M⁻¹ s⁻¹
B1: QX005N (PD2-31) (antibody, V domains shown)
VH: EVQLVESGGGLVQPGGSLRLSCAASGIDLRTNSMSWVRQAPGKGLEWVGIIGSSGYMDYASWAKGRFTISRDNSKNTLYLQMNSLRAEDTAVYYCARHGDSSSFALWGQGTLVTVSS
VL: DIQMTQSPSSLSASVGDRVTITCRASESVYKNNRLSWYQQKPGKAPKLLIYEASKVASGVPSRFSGSGSGTDFTLTISSLQPEDFATYYCAGAYRGNIYPFGQGTKVEIK
notes: Humanized from rabbit clone #2, expressed as a full antibody in ExpiCHO-S cells (heavy chain 48.5 kDa, light chain 23.7 kDa)
